One may read the stoichiometry N as the number of molecules, sites or subunits per partner or assembly.

Test [1] has as its target SV40 Large Tumor Antigen (LT) 131-627, wild type (Simian Virus 40). Description: SEC; Superdex 200 10/300 GL; 250 μg LT (0.8 μg/μL) incubated with 4 mM ATP and 1 mM MgCl2; 25 mM Tris pH 8.0, 250 mM NaCl, 0.5 mM TCEP; percent hexamer from peak areas; monomer to hexamer.
Test [2] has the same target. Nature of the test: SEC; Superdex 200 10/300 GL; 250 μg LT (0.8 μg/μL) incubated with 4 mM UTP and 1 mM MgCl2; 25 mM Tris pH 8.0, 250 mM NaCl, 0.5 mM TCEP; percent hexamer from peak areas; monomer to hexamer. A general note: In gel filtration, larger molecules generally elute earlier.
The target of test [3] is SV40 LT 131-627 cS430T (Simian Virus 40). Description: SEC; Superdex 200 10/300 GL; 250 μg LT (0.8 μg/μL) incubated with 4 mM ATP and 1 mM MgCl2; 25 mM Tris pH 8.0, 250 mM NaCl, 0.5 mM TCEP; percent hexamer from peak areas; monomer to hexamer.
For test [4] the target is unchanged. Nature of the test: SEC; Superdex 200 10/300 GL; 250 μg LT (0.8 μg/μL) incubated with 4 mM UTP and 1 mM MgCl2; 25 mM Tris pH 8.0, 250 mM NaCl, 0.5 mM TCEP; percent hexamer from peak areas; monomer to hexamer.
The target of test [5] is SV40 LT 131-627 cL557A (Simian Virus 40). Nature of the test: SEC; Superdex 200 10/300 GL; 250 μg LT (0.8 μg/μL) incubated with 4 mM ATP and 1 mM MgCl2; 25 mM Tris pH 8.0, 250 mM NaCl, 0.5 mM TCEP; percent hexamer from peak areas; monomer to hexamer.
For test [6], the target named is SV40 LT 131-627 tK419A (Simian Virus 40). Description: SEC; Superdex 200 10/300 GL; 250 μg LT (0.8 μg/μL) incubated with 4 mM TTP and 1 mM MgCl2; 25 mM Tris pH 8.0, 250 mM NaCl, 0.5 mM TCEP; percent hexamer from peak areas; monomer to hexamer.
Test [7] has the same target. Nature of the test: SEC; Superdex 200 10/300 GL; 250 μg LT (0.8 μg/μL) incubated with 4 mM ATP and 1 mM MgCl2; 25 mM Tris pH 8.0, 250 mM NaCl, 0.5 mM TCEP; percent hexamer from peak areas; monomer to hexamer.
The target of test [8] is SV40 LT 131-627 cW393A (Simian Virus 40). Described as above.

“SV40 Large Tumor Antigen (LT) 131-627, wild type (domain or fragment)” came in with a stoichiometry N in test [1] of 6. Besides, in test [2], the percent hexamer formed (UTP + Mg++) came out at 69.4%.

Regarding “SV40 LT 131-627 cS430T (domain or fragment)”, the stoichiometry N in test [3] amounted to 6. Also, in test [4], the percent hexamer formed (UTP + Mg++) stood at 84.6%.

On to “SV40 LT 131-627 cL557A (domain or fragment)”, for which, in test [5], the percent hexamer formed (ATP + Mg++) was 99.9% and the stoichiometry N was found to be 6.

As for “SV40 LT 131-627 tK419A (domain or fragment)”, in test [6], the decrease in hexamer formation compared to WT (TTP + Mg++) was determined as 25.2%. Besides, in test [7], the percent hexamer formed (ATP + Mg++) is 83.9% and the stoichiometry N was determined as 6.

Take “SV40 LT 131-627 cW393A (domain or fragment)”: in test [8], the percent hexamer formed (ATP + Mg++) came to 97.9% and the stoichiometry N came to 6.

For the origin of these results see publication PMC5391581.
